{
  "source": "patent US20140242080A1",
  "about": "(Hoffmann-La Roche, published 2014)",
  "binders": {"B1": {"name": "M4-3/ML2(C5/G3) IgG (antibody, V domains shown)", "VH": "QVQLQESGPGLVKPSQTLSLTCTVSGGSITSGYYWNWIRQHPGKGLEWIGYITYDGSNNYNPSLKSRVTISRDTSKNQFSLKLSSVTAADTAVYYCADFDYWGQGTLVTVSS", "VL": "DIQMTQSPSSLSASVGDRVTITCRASRGIREYLNWYQQKPGKAPKLLIYYTGSLHSGVPSRFSGSGSGTDFTLTISSLQPEDFATYYCQQYSALPWTFGQGTKVEIK", "notes": "Human IgG1"}, "B2": {"name": "M4-3(C1)/ML2 IgG (antibody, V domains shown)", "VH": "B1 VH with Y54F", "VL": "DIQMTQSPSSLSASVGDRVTITCRASQGIRNYLNWYQQKPGKAPKLLIYYTSSLHSGVPSRFSGSGSGTDFTLTISSLQPEDFATYYCQQYSKLPWTFGQGTKVEIKR", "notes": "Human IgG1; copies: 2 + 2"}, "B3": {"name": "M4-3/ML2(E10/G3) IgG (antibody, V domains shown)", "VH": "B1 VH", "VL": "B1 VL with R27Y, E31G, G52S, Y87H", "notes": "Human IgG1"}, "B4": {"name": "M4-3/ML2(E10) IgG (antibody, V domains shown)", "VH": "B1 VH", "VL": "B1 VL with R27Y, E31G, G52S, Y87H, A93K", "notes": "Human IgG1"}, "B5": {"name": "M4-(A7)/ML2(C5) IgG (antibody, V domains shown)", "VH": "B1 VH with S31D, Y54F, S57R", "VL": "B1 VL with A93E", "notes": "Human IgG1; also called M4-3(A7)/ML2(C5)"}, "B6": {"name": "M4-3/ML2(G3) IgG (antibody, V domains shown)", "VH": "B1 VH", "VL": "B1 VL with R27Q, E31N, G52S, F71Y", "notes": "Human IgG1"}, "B7": {"name": "2 + 1 IgG Crossfab; CL/CH1 exchange (M4-3 ML2/V9) (anti-MCSP/anti-huCD3) (bispecific antibody)", "chain 1": "DIQMTQSPSSLSASVGDRVTITCRASQDIRNYLNWYQQKPGKAPKLLIYYTSRLESGVPSRFSGSGSGTDYTLTISSLQPEDFATYYCQQGNTLPWTFGQGTKVEIKSSASTKGPSVFPLAPSSKSTSGGTAALGCLVKDYFPEPVTVSWNSGALTSGVHTFPAVLQSSGLYSLSSVVTVPSSSLGTQTYICNVNHKPSNTKVDKKVEPKSC", "chain 2": "not shown", "chain 3": "QVQLQESGPGLVKPSQTLSLTCTVSGGSITSGYYWNWIRQHPGKGLEWIGYITYDGSNNYNPSLKSRVTISRDTSKNQFSLKLSSVTAADTAVYYCADFDYWGQGTLVTVSSASTKGPSVFPLAPSSKSTSGGTAALGCLVKDYFPEPVTVSWNSGALTSGVHTFPAVLQSSGLYSLSSVVTVPSSSLGTQTYICNVNHKPSNTKVDKKVEPKSCDKTHTCPPCPAPEAAGGPSVFLFPPKPKDTLMISRTPEVTCVVVDVSHEDPEVKFNWYVDGVEVHNAKTKPREEQYNSTYRVVSVLTVLHQDWLNGKEYKCKVSNKALGAPIEKTISKAKGQPREPQVCTLPPSRDELTKNQVSLSCAVKGFYPSDIAVEWESNGQPENNYKTTPPVLDSDGSFFLVSKLTVDKSRWQQGNVFSCSVMHEALHNHYTQKSLSLSPGK", "chain 4": "not shown"}, "B8": {"name": "1 + 1 IgG Crossfab; VL/VH exchange (LC007/V9) (anti-MCSP/anti-huCD3) (bispecific antibody)", "chain 1": "DIVLTQSPSSLSASLGDRVTISCSASQGIRNYLNWYQQRPDGTVKLLIYYTSSLHSGVPSRFSGSGSGTDYSLTISNLEPEDIATYYCQQYSKLPWTFGGGTKLEIKRTVAAPSVFIFPPSDEQLKSGTASVVCLLNNFYPREAKVQWKVDNALQSGNSQESVTEQDSKDSTYSLSSTLTLSKADYEKHKVYACEVTHQGLSSPVTKSFNRGEC", "chain 2": "DIQMTQSPSSLSASVGDRVTITCRASQDIRNYLNWYQQKPGKAPKLLIYYTSRLESGVPSRFSGSGSGTDYTLTISSLQPEDFATYYCQQGNTLPWTFGQGTKVEIKSSASTKGPSVFPLAPSSKSTSGGTAALGCLVKDYFPEPVTVSWNSGALTSGVHTFPAVLQSSGLYSLSSVVTVPSSSLGTQTYICNVNHKPSNTKVDKKVEPKSCGGGGSGGGGSEVQLQESGPGLVKPSQSLSLTCSVTGYSITSGYYWNWIRQFPGNKLEWMGYITYDGSNNYNPSLKNRISITRDTSKNQFFLKLNSVTTEDTATYYCADFDYWGQGTTLTVSSASTKGPSVFPLAPSSKSTSGGTAALGCLVKDYFPEPVTVSWNSGALTSGVHTFPAVLQSSGLYSLSSVVTVPSSSLGTQTYICNVNHKPSNTKVDKKVEPKSCDKTHTCPPCPAPEAAGGPSVFLFPPKPKDTLMISRTPEVTCVVVDVSHEDPEVKFNWYVDGVEVHNAKTKPREEQYNSTYRVVSVLTVLHQDWLNGKEYKCKVSNKALGAPIEKTISKAKGQPREPQVCTLPPSRDELTKNQVSLSCAVKGFYPSDIAVEWESNGQPENNYKTTPPVLDSDGSFFLVSKLTVDKSRWQQGNVFSCSVMHEALHNHYTQKSLSLSPGK", "chain 3": "EVQLVESGGGLVQPGGSLRLSCAASGYSFTGYTMNWVRQAPGKGLEWVALINPYKGVSTYNQKFKDRFTISVDKSKNTAYLQMNSLRAEDTAVYYCARSGYYGDSDWYFDVWGQGTLVTVSSASVAAPSVFIFPPSDEQLKSGTASVVCLLNNFYPREAKVQWKVDNALQSGNSQESVTEQDSKDSTYSLSSTLTLSKADYEKHKVYACEVTHQGLSSPVTKSFNRGEC", "chain 4": "not shown"}, "B9": {"name": "2 + 1 IgG Crossfab; VL/VH exchange (M4-3 ML2/V9) (anti-MCSP/anti-huCD3) (bispecific antibody)", "chain 1": "B8 chain 3", "chain 2": "not shown", "chain 3": "not shown", "chain 4": "B7 chain 3"}, "B10": {"name": "1 + 1 CrossMab; CL/CH1 exchange (LC007/V9) (anti-MCSP/anti-huCD3) (bispecific antibody)", "chain 1": "B8 chain 1", "chain 2": "EVQLQESGPGLVKPSQSLSLTCSVTGYSITSGYYWNWIRQFPGNKLEWMGYITYDGSNNYNPSLKNRISITRDTSKNQFFLKLNSVTTEDTATYYCADFDYWGQGTTLTVSSASTKGPSVFPLAPSSKSTSGGTAALGCLVKDYFPEPVTVSWNSGALTSGVHTFPAVLQSSGLYSLSSVVTVPSSSLGTQTYICNVNHKPSNTKVDKKVEPKSCDKTHTCPPCPAPEAAGGPSVFLFPPKPKDTLMISRTPEVTCVVVDVSHEDPEVKFNWYVDGVEVHNAKTKPREEQYNSTYRVVSVLTVLHQDWLNGKEYKCKVSNKALGAPIEKTISKAKGQPREPQVCTLPPSRDELTKNQVSLSCAVKGFYPSDIAVEWESNGQPENNYKTTPPVLDSDGSFFLVSKLTVDKSRWQQGNVFSCSVMHEALHNHYTQKSLSLSPGK", "chain 3": "B7 chain 1", "chain 4": "not shown"}},
  "note": "Where a chain is given by its changes, count along the chain named.",
  "data": [
    {"molecular_target": "T1, hu-MCSP(D3 domain)-avi-his (human, UniProt Q6UVK1 1582-2224)", "T1 construct": "Recombinant D3 domain with avi and his tags; also called human MCSP(D3 domain)-avi-his; Human MCSP D3", "T1 sequence": "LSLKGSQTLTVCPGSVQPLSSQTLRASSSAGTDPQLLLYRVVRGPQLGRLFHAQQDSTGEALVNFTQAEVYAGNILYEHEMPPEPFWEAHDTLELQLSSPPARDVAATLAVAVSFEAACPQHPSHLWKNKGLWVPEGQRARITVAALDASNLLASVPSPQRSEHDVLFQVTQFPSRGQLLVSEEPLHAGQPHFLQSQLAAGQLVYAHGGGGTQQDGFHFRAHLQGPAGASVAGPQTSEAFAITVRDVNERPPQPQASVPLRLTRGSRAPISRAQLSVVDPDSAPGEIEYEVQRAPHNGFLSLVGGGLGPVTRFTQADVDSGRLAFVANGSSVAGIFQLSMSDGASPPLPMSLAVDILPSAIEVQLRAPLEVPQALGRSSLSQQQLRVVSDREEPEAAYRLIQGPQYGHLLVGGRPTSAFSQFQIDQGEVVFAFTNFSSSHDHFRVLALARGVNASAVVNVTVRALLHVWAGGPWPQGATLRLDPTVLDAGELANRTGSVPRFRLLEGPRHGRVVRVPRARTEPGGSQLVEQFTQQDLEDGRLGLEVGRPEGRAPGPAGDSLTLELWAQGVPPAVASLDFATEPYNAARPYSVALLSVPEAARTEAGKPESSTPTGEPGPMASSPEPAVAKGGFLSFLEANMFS", "experiment": "SPR ProteOn XPR36, 25 C; IgG captured via anti-human F(ab')2, MCSP D3 as analyte", "units": {"Kd": "nM"}, "values": [
      {"binder": "B1", "Kd": 0.7},
      {"binder": "B2", "Kd": 0.9},
      {"binder": "B3", "Kd": 0.4},
      {"binder": "B4", "Kd": 1},
      {"binder": "B5", "Kd": 0.7},
      {"binder": "B6", "Kd": 0.3}
    ]},
    {"molecular_target": "T2, cynomolgus MCSP D3 (cynomolgus, UniProt Q6UVK1 1582-2224 (human entry), limits assumed)", "T2 construct": "also called Cyno MCSP; cynomolgus homologue", "T2 chain": "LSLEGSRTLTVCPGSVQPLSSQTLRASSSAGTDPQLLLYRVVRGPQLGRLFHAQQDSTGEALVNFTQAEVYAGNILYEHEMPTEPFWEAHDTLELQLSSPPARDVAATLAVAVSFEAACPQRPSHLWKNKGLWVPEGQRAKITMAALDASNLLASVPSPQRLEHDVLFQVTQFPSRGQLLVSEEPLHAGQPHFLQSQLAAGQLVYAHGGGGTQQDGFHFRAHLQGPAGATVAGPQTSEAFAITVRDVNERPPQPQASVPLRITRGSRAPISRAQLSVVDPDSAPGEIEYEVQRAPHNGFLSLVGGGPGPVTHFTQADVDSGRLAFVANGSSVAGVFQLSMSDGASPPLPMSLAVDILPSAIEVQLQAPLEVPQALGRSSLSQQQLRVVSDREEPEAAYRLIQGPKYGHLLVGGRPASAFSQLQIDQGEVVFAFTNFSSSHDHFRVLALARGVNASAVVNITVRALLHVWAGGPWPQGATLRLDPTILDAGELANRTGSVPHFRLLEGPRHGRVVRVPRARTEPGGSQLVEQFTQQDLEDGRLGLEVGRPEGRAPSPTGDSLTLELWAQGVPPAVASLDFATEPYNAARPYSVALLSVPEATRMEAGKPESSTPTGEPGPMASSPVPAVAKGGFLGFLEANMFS", "experiment": "SPR ProteOn XPR36, 25 C; IgG captured via anti-human F(ab')2, MCSP D3 as analyte", "units": {"Kd": "nM"}, "values": [
      {"binder": "B1", "Kd": 1},
      {"binder": "B2", "Kd": 0.8},
      {"binder": "B3", "Kd": 0.9},
      {"binder": "B4", "Kd": 2},
      {"binder": "B5", "Kd": 0.2},
      {"binder": "B6", "Kd": 0.6}
    ]},
    {"molecular_target": "human MCSP expressed on tumor cells (Colo-38, WM266-4, A375, MV-3, HCT-116) (human, UniProt Q6UVK1 30-2322)", "sequence (Q6UVK1 30-2322)": "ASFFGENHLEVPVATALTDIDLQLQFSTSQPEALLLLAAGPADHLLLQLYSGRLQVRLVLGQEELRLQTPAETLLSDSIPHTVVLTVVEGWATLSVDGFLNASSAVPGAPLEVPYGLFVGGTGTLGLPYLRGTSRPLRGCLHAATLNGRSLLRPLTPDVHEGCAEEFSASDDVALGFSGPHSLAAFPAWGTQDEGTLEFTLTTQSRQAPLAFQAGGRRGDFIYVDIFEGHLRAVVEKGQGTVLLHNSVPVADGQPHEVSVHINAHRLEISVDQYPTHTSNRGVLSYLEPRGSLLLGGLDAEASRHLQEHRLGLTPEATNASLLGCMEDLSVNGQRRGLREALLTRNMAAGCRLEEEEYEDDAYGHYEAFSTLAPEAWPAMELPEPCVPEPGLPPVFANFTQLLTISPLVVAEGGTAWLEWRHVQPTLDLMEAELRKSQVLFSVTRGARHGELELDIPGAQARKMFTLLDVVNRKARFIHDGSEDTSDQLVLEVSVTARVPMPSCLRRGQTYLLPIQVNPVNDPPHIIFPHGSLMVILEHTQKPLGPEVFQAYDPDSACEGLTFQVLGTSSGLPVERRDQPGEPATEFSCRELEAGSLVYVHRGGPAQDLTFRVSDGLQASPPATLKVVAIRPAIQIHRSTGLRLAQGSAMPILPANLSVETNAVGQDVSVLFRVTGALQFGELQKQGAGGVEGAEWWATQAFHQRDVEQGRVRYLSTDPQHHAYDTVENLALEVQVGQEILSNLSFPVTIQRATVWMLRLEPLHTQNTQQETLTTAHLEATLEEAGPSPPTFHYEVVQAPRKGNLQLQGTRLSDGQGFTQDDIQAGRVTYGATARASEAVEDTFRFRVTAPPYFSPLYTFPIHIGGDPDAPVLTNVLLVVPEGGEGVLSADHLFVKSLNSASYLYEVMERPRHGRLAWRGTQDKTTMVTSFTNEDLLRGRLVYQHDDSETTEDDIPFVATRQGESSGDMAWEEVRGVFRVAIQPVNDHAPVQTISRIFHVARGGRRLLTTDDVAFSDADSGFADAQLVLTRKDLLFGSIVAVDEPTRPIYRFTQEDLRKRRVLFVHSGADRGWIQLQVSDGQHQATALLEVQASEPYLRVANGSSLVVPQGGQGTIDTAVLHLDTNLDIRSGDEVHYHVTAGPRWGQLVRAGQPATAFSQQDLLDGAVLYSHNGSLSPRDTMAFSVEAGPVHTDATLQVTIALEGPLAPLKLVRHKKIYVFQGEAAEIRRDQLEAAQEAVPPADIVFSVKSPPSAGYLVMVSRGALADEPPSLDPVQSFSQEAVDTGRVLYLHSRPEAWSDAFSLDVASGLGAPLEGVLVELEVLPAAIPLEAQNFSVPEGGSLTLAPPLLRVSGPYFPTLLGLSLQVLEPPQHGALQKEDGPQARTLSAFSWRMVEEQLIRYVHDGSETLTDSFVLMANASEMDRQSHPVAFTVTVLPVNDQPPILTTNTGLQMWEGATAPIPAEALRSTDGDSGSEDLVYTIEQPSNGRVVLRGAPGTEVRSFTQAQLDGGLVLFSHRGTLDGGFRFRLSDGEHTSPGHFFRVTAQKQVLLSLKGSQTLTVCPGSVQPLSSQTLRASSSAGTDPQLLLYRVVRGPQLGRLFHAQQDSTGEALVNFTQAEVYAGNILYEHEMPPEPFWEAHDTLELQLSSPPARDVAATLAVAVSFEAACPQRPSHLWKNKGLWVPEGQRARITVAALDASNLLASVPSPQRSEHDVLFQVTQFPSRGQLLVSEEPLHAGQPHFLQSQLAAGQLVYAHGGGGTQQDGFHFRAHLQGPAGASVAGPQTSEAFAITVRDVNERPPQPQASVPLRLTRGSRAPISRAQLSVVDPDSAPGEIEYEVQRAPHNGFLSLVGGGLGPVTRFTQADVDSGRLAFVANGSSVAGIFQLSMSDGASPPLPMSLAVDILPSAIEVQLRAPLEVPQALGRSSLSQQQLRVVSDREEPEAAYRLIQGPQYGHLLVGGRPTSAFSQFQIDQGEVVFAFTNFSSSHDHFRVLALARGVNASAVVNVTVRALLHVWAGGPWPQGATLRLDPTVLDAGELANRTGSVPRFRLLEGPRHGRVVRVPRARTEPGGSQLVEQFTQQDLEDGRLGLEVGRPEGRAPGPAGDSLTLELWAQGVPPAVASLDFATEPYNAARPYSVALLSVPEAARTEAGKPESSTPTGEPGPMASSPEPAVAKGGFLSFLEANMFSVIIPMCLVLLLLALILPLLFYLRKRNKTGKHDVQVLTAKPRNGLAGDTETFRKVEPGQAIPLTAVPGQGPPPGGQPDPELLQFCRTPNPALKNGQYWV", "experiment": "cell-based or functional assay", "units": {"EC50 of T cell-mediated killing (LDH release), MV-3 cells, human PBMCs E:T 10:1, 27 h": "pM", "EC50 of T cell-mediated killing (LDH release), WM266-4 cells, human PBMCs E:T 10:1, 26 h": "pM", "EC50 of T cell-mediated killing (LDH release), MV-3 cells, human PBMCs E:T 10:1, 21 h": "pM", "EC50 of T cell-mediated killing (LDH release), WM266-4 cells, human PBMCs E:T 10:1, 21 h": "pM"}, "values": [
      {"binder": "B7", "EC50 of T cell-mediated killing (LDH release), MV-3 cells, human PBMCs E:T 10:1, 27 h": "~11.7", "EC50 of T cell-mediated killing (LDH release), WM266-4 cells, human PBMCs E:T 10:1, 26 h": 12.9},
      {"binder": "B8", "EC50 of T cell-mediated killing (LDH release), MV-3 cells, human PBMCs E:T 10:1, 21 h": 40.9, "EC50 of T cell-mediated killing (LDH release), WM266-4 cells, human PBMCs E:T 10:1, 21 h": 28.4},
      {"binder": "B9", "EC50 of T cell-mediated killing (LDH release), MV-3 cells, human PBMCs E:T 10:1, 27 h": "~82.2", "EC50 of T cell-mediated killing (LDH release), WM266-4 cells, human PBMCs E:T 10:1, 26 h": 16.8},
      {"binder": "B10", "EC50 of T cell-mediated killing (LDH release), MV-3 cells, human PBMCs E:T 10:1, 21 h": 88.4, "EC50 of T cell-mediated killing (LDH release), WM266-4 cells, human PBMCs E:T 10:1, 21 h": 53.9}
    ]},
    {"molecular_target": "T1, hu-MCSP(D3 domain)-avi-his", "experiment": "ratio of ProteOn IgG KD, parent M4-3/ML2 against variant", "units": {"Fold increase over parent": "fold"}, "values": [
      {"binder": "B1", "Fold increase over parent": 2.9},
      {"binder": "B2", "Fold increase over parent": 2.2},
      {"binder": "B3", "Fold increase over parent": 5},
      {"binder": "B4", "Fold increase over parent": 2},
      {"binder": "B5", "Fold increase over parent": 28.6},
      {"binder": "B6", "Fold increase over parent": 6.7}
    ]},
    {"molecular_target": "T2, cynomolgus MCSP D3", "experiment": "ratio of ProteOn IgG KD, parent M4-3/ML2 against variant", "units": {"Fold increase over parent": "fold"}, "values": [
      {"binder": "B1", "Fold increase over parent": 2},
      {"binder": "B2", "Fold increase over parent": 2.5},
      {"binder": "B3", "Fold increase over parent": 2.2},
      {"binder": "B4", "Fold increase over parent": 1},
      {"binder": "B5", "Fold increase over parent": 10},
      {"binder": "B6", "Fold increase over parent": 3.3}
    ]}
  ]
}
